Experimental data: patent US20240025971A1

Target: SARS-CoV-2 Wuhan D614G full-length Spike protein (SARS-CoV-2) (UniProt P0DTC2)
Assay: cell-based or functional assay

Substance “Anti-Nucleocapsid (Neg Control) (antibody)” has a Pseudovirus Neutralization greater than 50 µg/mL.
